{"source": "patent US20080057519A1", "key": {"[1]": {"target": "FLJ32028 with an HA epitope tag fused to the predicted C-terminal end of the protein (human) (UniProt Q6P9G4)", "assay": "flow cytometry on intact transfected 293-EBNA cells, streptavidin-PE detection"}, "[2]": {"target": "FLJ32028 with an HA epitope tag inserted at the predicted N-terminal end of the protein (human) (UniProt Q6P9G4)", "assay": "flow cytometry on intact transfected 293-EBNA cells, streptavidin-PE detection"}}}
{"substance": "biotinylated Rat Anti-HA antibody (Roche)", "values": [{"measurement": "% of transfected GFP+ cells negative for HA", "setting": "[1]", "value": 85, "unit": "%"}, {"measurement": "% of transfected GFP+ cells positive for HA", "setting": "[2]", "value": "> 99", "unit": "%"}]}
